Data as given in article PMC7980507 (Protein Science : A Publication of the Protein Society, 2021).

Target: His‐tagged SARS‐CoV‐2 spike receptor binding domain (RBD) (SARS-CoV-2, UniProt P0DTC2)
Test: BLI

B1: CB6 (antibody, V domains shown)
VH: EVQLVESGGGLVQPGGSLRLSCAASGFTVSSNYMSWVRQAPGKGLEWVSVIYSGGSTFYADSVKGRFTISRDNSMNTLFLQMNSLRAEDTAVYYCARVLPMYGDYLDYWGQGTLVTVSS
VL: not shown
B1: binds.

B2: EY6A (antibody, V domains shown)
VH: EVQLVESGGGVVQPGRSLRLSCAASAFTFSSYDMHWVRQAPGKGLEWVAVISYDGSNKYYADSVKGRFTISRDNSKNTLYLQMNSLRAEDTAVYYCAKDGGKLWVYYFDYWGQGTLVTVSS
VL: not shown
B2: binds.
